Columns and labels:
[1] = biological target: HER2-binding monomeric IgA1 with heterogeneous complex N-glycans, produced in HEK293F cells (human); assay: ITC; 10 μM IgA in the sample cell titrated with 160 μM FcαRI; 25 °C; PBS, pH 7.4
[2] = biological target: HER2-binding monomeric IgA2m(2) with complex N-glycans (human); assay: as above
[3] = biological target: HEK293F-produced IgA1-Fc deletion protein lacking the Fab domain (human); assay: SEC-MALS; SE-HPLC-MALS, Superdex 200 10/300 GL; IgA mixed with the receptor in a molar ratio of 1:4 starting from 25 μg of IgA
HEK293F-produced IgA1-Fc deletion protein lacking the Fab domain (human), sequence (P01876 1-364, stated change not applied): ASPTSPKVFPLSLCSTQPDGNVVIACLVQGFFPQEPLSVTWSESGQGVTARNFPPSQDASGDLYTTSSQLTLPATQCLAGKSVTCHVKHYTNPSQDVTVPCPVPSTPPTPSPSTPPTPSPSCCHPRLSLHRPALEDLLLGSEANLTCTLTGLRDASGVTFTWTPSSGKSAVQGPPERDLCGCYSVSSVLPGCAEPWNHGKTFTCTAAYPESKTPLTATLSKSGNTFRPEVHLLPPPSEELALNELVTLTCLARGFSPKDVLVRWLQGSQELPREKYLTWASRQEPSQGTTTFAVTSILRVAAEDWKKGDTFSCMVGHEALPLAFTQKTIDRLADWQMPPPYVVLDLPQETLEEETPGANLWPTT

[4] = biological target: HER2-binding monomeric IgA1 with mostly biantennary GlcNAc2Man3GlcNAc2 (GnGn) complex N-glycans (human); assay: as above
[5] = biological target: HER2-binding monomeric IgA1 with Man3GlcNAc2 (MM) N-glycans (human); assay: SPR; Biacore T200; IgA glycoforms captured on a Protein L chip, FcαRI glycoforms injected in single-cycle kinetics at five concentrations (31.5 to 500 nM); 1x PBS, 0.05% Tween, 0.1% BSA; 1:1 binding model; average of four independent experiments
[6] = biological target: HER2-binding monomeric IgA1 with terminally sialylated (NaNa) N-glycans (human); assay: as above
[7] = biological target: HER2-binding monomeric IgA2m(2) with Man3GlcNAc2 (MM) N-glycans (human); assay: as above
[8] = biological target: HER2-binding monomeric IgA2m(2) with sialylated (NaNa) N-glycans (human); assay: as above
[9] = biological target: HER2-binding monomeric IgA2m(2) with heterogeneous complex N-glycans (human); assay: ITC; 10 μM IgA in the cell titrated with 160 μM FcαRI from the syringe; PBS pH 7.4, 25 °C, 19 injections

| stoichiometry N (FcαRI per IgA) [1] | stoichiometry N (FcαRI per IgA) [2] | stoichiometry N (FcαRI per IgA1-Fc) [3] | stoichiometry N (FcαRI per IgA) [4] | Kd [5] [nM] | koff [5] [s⁻¹] | kon [5] [M⁻¹ s⁻¹] | Kd [6] [nM] | koff [6] [s⁻¹] | kon [6] [M⁻¹ s⁻¹] | Kd [7] [nM] | koff [7] [s⁻¹] | kon [7] [M⁻¹ s⁻¹] | Kd [8] [nM] | koff [8] [s⁻¹] | kon [8] [M⁻¹ s⁻¹] | Kd [9] [nM] | stoichiometry N [9] | Substance |
| --- | --- | --- | --- | --- | --- | --- | --- | --- | --- | --- | --- | --- | --- | --- | --- | --- | --- | --- |
| 1.3 | 1.3 | 1 | 1 |  |  |  |  |  |  |  |  |  |  |  |  |  |  | extracellular domain of the human FcαRI (CD89) with complex sialylated N-glycans (from UniProt P24071 22-227) (receptor) |
| 1.3 | 1.3 |  |  |  |  |  |  |  |  |  |  |  |  |  |  |  |  | extracellular domain of the human FcαRI with oligomannosidic N-glycans (from UniProt P24071 22-227) (receptor) |
|  |  |  |  | 25.2 | 0.05 | 1.9e+06 | 25.8 | 0.06 | 2.3e+06 | 26.2 | 0.03 | 1.2e+06 | 25.2 | 0.03 | 1.3e+06 |  |  | extracellular domain of human FcαRI with single GlcNAc residues at each N-glycosylation site (from UniProt P24071 22-227) (receptor) |
|  |  |  |  | 187 | 0.07 | 350000 | 149 | 0.07 | 520000 | 225 | 0.06 | 280000 | 206 | 0.06 | 300000 | 161 | 1.33 | extracellular domain of human FcαRI (CD89) with complex sialylated N-glycans (from UniProt P24071 22-227) (receptor) |
|  |  |  |  |  |  |  |  |  |  |  |  |  |  |  |  | 90.7 | 1.36 | extracellular domain of human FcαRI with oligomannosidic N-glycans (from UniProt P24071 22-227) (receptor) |

— publication PMC6755811
